Measured values taken from US20220257784A1 (Bicycle, published 2022).
Starred links: 1 amine or outer side, 2 acyl side, 3 side chain; linkers in the order of their positions; H or OH if unused. Positions of bridges follow the written chain, without caps; N, C: chain ends. Non-standard residues stand in square brackets, D forms with d. No end group written: not given here. TATA = O=C(CC[*:1])N1CN(C(=O)CC[*:2])CN(C(=O)CC[*:3])C1; Ala(4-thiazolyl) = N[C@@H](Cc1cscn1)C(=O)O; Dip = N[C@H](C(=O)O)C(c1ccccc1)c1ccccc1; 1Nal = N[C@@H](Cc1cccc2ccccc12)C(=O)O; His(τ-Me) = Cn1cnc(C[C@H](N)C(=O)O)c1; d1Nal = N[C@H](Cc1cccc2ccccc12)C(=O)O; Hyp = O=C(O)[C@@H]1C[C@@H](O)CN1; hArg = N=C(N)NCCCC[C@H](N)C(=O)O; 2Thi = N[C@@H](Cc1cccs1)C(=O)O; 3Thi = N[C@@H](Cc1ccsc1)C(=O)O; Aad = N[C@@H](CCCC(=O)O)C(=O)O; His3Me = N3-methyl-L-histidine; Cysteamide = C(CS[*:3])N[*:1]; Cba = N[C@@H](CC1CCC1)C(=O)O; dNle = CCCC[C@@H](N)C(=O)O; NMeA = CN[C@@H](C)C(=O)O; Nle = CCCC[C@H](N)C(=O)O; Mpa = O=C(O)CCS

Assays:
[1] = target: T1, human EphA2 (human, UniProt P29317 25-534, limits assumed); test: fluorescence polarisation competition with tracer BCY90, human EphA2, mean of 6
T1 construct: also called Eph receptor tyrosine kinase A2
T1 sequence (P29317 25-534 limits assumed): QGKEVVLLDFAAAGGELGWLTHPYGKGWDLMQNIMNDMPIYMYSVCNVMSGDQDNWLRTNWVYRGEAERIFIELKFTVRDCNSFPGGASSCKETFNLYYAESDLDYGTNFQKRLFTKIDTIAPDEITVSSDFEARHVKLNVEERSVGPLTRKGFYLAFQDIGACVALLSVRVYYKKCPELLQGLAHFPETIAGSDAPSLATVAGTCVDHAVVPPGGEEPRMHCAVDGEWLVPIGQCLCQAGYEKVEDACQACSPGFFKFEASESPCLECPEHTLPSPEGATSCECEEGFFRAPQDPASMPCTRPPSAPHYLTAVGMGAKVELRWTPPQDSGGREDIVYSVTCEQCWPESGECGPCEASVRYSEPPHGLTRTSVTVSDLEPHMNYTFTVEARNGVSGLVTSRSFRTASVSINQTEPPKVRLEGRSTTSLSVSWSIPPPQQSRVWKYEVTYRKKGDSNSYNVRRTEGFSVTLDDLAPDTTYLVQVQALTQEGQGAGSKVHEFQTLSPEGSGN
Experimental: (§1) Peptides without a fluorescent tag were tested in competition with a peptide with a fluorescent tag and a known Kd.
(§2) Peptides were diluted to an appropriate concentration in assay buffer as described in the direct binding assay with a maximum of 5% DMSO, then serially diluted 1 in 2. […] Measurements were conducted, however the gain was determined prior to the first measurement. Data analysis was in Systat Sigmaplot version 12.0 where the mP values were fit to a user defined cubic equation to generate a Ki value: […]

[2] = target: T1, human EphA2; test: fluorescence polarisation competition with tracer BCY90, human EphA2, mean of 38
Experimental: as §1, §2

[3] = target: T1, human EphA2; test: fluorescence polarisation competition with tracer BCY90, human EphA2, mean of 8
Experimental: as §1, §2

[4] = target: T1, human EphA2; test: fluorescence polarisation competition with tracer BCY90, human EphA2, mean of 10
Experimental: as §1, §2

Row | Binder | Ki [1] | other results
1 | A[hArg]DC[Hyp]LVNPLCLEP[dD]W[hArg]C-NH2 (linker 4-11-18 via TATA, Bicyclic peptide cyclised with TATA) [BCY12854] | 9.34 nM | 
2 | A[hArg]DC[Hyp]LVNPLCLHP[dD]W[hArg]C-NH2 (linker 4-11-18 via TATA, Bicyclic peptide cyclised with TATA) [BCY9594] |  | Ki [2]: 1.44 nM
3 | A[hArg]DC[Hyp]LVNPLCLQP[dD]W[hArg]C-NH2 (linker 4-11-18 via TATA, Bicyclic peptide cyclised with TATA) [BCY14048] | 4.1 nM | 
4 | A[hArg]DC[Hyp]LVNPLCLNP[dD]W[hArg]C-NH2 (linker 4-11-18 via TATA, Bicyclic peptide cyclised with TATA) [BCY14047] | 3.88 nM | 
5 | [d1Nal][hArg]DC[Hyp][Cba]VNPLCLEP[dA]WTC[dA]-NH2 (linker 4-11-18 via TATA, Bicyclic peptide cyclised with TATA) [BCY13124] | 7.62 nM | 
6 | A[hArg]DC[Hyp]LVNPLCLHP[d1Nal]W[hArg]C-NH2 (linker 4-11-18 via TATA, Bicyclic peptide cyclised with TATA) [BCY13116] |  | Ki [3]: 1.13 nM
7 | ADC[Hyp]LVNPLCLEP[dD]WTC-NH2 (linker 3-10-17 via TATA, Bicyclic peptide cyclised with TATA) [BCY13128] | 16.1 nM | 
8 | A[hArg]DC[Hyp]LVNPLCL[1Nal]P[dD]W[hArg]C-NH2 (linker 4-11-18 via TATA, Bicyclic peptide cyclised with TATA) [BCY13117] |  | Ki [3]: 1.12 nM
9 | A[hArg]DC[Hyp]LVNPLCL[Aad]P[dD]W[hArg]C-NH2 (linker 4-11-18 via TATA, Bicyclic peptide cyclised with TATA) [BCY13132] | 7.08 nM | 
10 | A[hArg]DC[Hyp]LVNPLCLHP[dNle]W[hArg]C-NH2 (linker 4-11-18 via TATA, Bicyclic peptide cyclised with TATA) [BCY13134] | 1.16 nM | 
11 | [Mpa][Hyp]LVNPLCL[Dip]P[dD]WTC[dK]-NH2 (linker (positions not given here) via TATA; not fully specified (bridges), Bicyclic peptide cyclised with TATA; the first reactive group is 3-mercaptopropionic acid in place of cysteine) [BCY13129] | 1.88 nM | 
12 | A[hArg]DC[Hyp]LVNPLCL[Dip]P[dD]WTC-NH2 (linker 4-11-18 via TATA, Bicyclic peptide cyclised with TATA) [BCY12859] |  | Ki [3]: 0.723 nM
13 | C[Hyp]LVNPLCL[Dip]P[dD]WTC-NH2 (linker 1-8-15 via TATA, Bicyclic peptide cyclised with TATA) [BCY12860] | 0.66 nM | 
14 | A[hArg]DC[Hyp]LVNPLCL[3Thi]P[dD]W[hArg]C-NH2 (linker 4-11-18 via TATA, Bicyclic peptide cyclised with TATA) [BCY13923] | 1.32 nM | 
15 | [dA]EDC[Hyp]LVNPLCLEP[dD]WTC-NH2 (linker 4-11-18 via TATA, Bicyclic peptide cyclised with TATA) [BCY13126] | 25.3 nM | 
16 | [NMeA][hArg]DC[Hyp]LVNPLCLEP[dD]WTC-NH2 (linker 4-11-18 via TATA, Bicyclic peptide cyclised with TATA) [BCY13122] |  | Ki [3]: 7.8 nM
17 | [NMeA][hArg]DC[Hyp]LVNPLCLHP[dD]W[hArg]C-NH2 (linker 4-11-18 via TATA, Bicyclic peptide cyclised with TATA) [BCY13121] | 1.49 nM | 
18 | C[Hyp][Cba]VNPLCL[Dip]P[dD]WTC[dA]-NH2 (linker 1-8-15 via TATA, Bicyclic peptide cyclised with TATA) [BCY12865] | 0.857 nM | 
19 | A[hArg]DC[Hyp]LVNPLCLEP[dD]WTC-NH2 (linker 4-11-18 via TATA, Bicyclic peptide cyclised with TATA) [BCY12856] |  | Ki [3]: 4.63 nM
20 | A[hArg]DC[Hyp]LVNPLCL[Dip]P[dD]W[hArg]C-NH2 (linker 4-11-18 via TATA, Bicyclic peptide cyclised with TATA) [BCY12866] |  | Ki [4]: 0.244 nM
21 | A[hArg]DC[Hyp]LVNPLCL[2Thi]P[dD]W[hArg]C-NH2 (linker 4-11-18 via TATA, Bicyclic peptide cyclised with TATA) [BCY13922] | 1.14 nM | 
22 | A[hArg]DC[Hyp]LVNPLCLHP[dD]W[hArg][Cysteamide] (linker (positions not given here) via TATA; not fully specified (bridges), Bicyclic peptide cyclised with TATA; the third reactive group is cysteamine in place of cysteine) [BCY13133] | 3.24 nM | 
23 | [dA][hArg]DC[Hyp][Cba]VNPLCLEP[dD]WTC[dA]-NH2 (linker 4-11-18 via TATA, Bicyclic peptide cyclised with TATA) [BCY12864] | 9.29 nM | 
24 | A[hArg]DC[Hyp]LVNPLCLEP[d1Nal]WTC-NH2 (linker 4-11-18 via TATA, Bicyclic peptide cyclised with TATA) [BCY13118] | 5.42 nM | 
25 | A[hArg]DC[Hyp]LVNPLC[Aad]HP[dD]W[hArg]C-NH2 (linker 4-11-18 via TATA, Bicyclic peptide cyclised with TATA) [BCY13131] | 27.1 nM | 
26 | C[Hyp]LVNPLCLEP[dD]WTC[dA]-NH2 (linker 1-8-15 via TATA, Bicyclic peptide cyclised with TATA) [BCY12861] | 21.7 nM | 
27 | C[Hyp]LVNPLCL[1Nal]P[dD]WTC-NH2 (linker 1-8-15 via TATA, Bicyclic peptide cyclised with TATA) [BCY13119] |  | Ki [3]: 2.64 nM
28 | A[hArg]DC[Hyp]LVNPLCLEP[dD]WTC[dA]-NH2 (linker 4-11-18 via TATA, Bicyclic peptide cyclised with TATA) [BCY12857] | 16 nM | 
29 | A[hArg]DC[Hyp]LVNPLCL[Ala(4-thiazolyl)]P[dD]W[hArg]C-NH2 (linker 4-11-18 via TATA, Bicyclic peptide cyclised with TATA) [BCY13919] | 2.1 nM | 
30 | A[hArg]DC[Hyp]LVNPLCL[His3Me]P[dD]W[hArg]C-NH2 (linker 4-11-18 via TATA, Bicyclic peptide cyclised with TATA) [BCY13917] | 1.72 nM | 

More lines, main results first:

Row | Ki [1] | Binder | other results
31 | 0.641 nM | A[hArg]DC[Hyp]LVNPLCLFP[dD]W[hArg]C-NH2 (linker 4-11-18 via TATA, Bicyclic peptide cyclised with TATA) [BCY13920] | 
32 | 1.83 nM | Ac-C[Hyp]LVNPLCLHP[dD]W[hArg]CL[dH]G[dK]-NH2 (linker 1-8-15 via TATA, Bicyclic peptide cyclised with TATA) [BCY13125] | 
33 | 1.22 nM | A[hArg]DC[Hyp][Cba]VNPLCLHP[dD]W[hArg]C-NH2 (linker 4-11-18 via TATA, Bicyclic peptide cyclised with TATA) [BCY12862] | 
34 | 5.84 nM | A[hArg]DC[Hyp][Cba]VNPLCLEP[dD]WTC-NH2 (linker 4-11-18 via TATA, Bicyclic peptide cyclised with TATA) [BCY12863] | 
35 | 14.9 nM | [dA][dA]DC[Hyp]LVNPLCLEP[dD]WTC-NH2 (linker 4-11-18 via TATA, Bicyclic peptide cyclised with TATA) [BCY13127] | 
36 | 8.19 nM | A[hArg]DC[Hyp]LVNPLCLEP[dA]WTC-NH2 (linker 4-11-18 via TATA, Bicyclic peptide cyclised with TATA) [BCY12858] | 
37 | 5.55 nM | A[hArg]DC[Hyp]LVNPLCLHP[dD]WTC-NH2 (linker 4-11-18 via TATA, Bicyclic peptide cyclised with TATA) [BCY12855] | 
38 | 0.894 nM | A[hArg]DC[Hyp]LVNPLCL[Nle]P[dD]W[hArg]C-NH2 (linker 4-11-18 via TATA, Bicyclic peptide cyclised with TATA) [BCY13135] | 
39 | 2.62 nM | A[hArg]DC[Hyp]LVNPLCL[His(τ-Me)]P[dD]W[hArg]C-NH2 (linker 4-11-18 via TATA, Bicyclic peptide cyclised with TATA) [BCY13918] | 
40 | 6.44 nM | [dA][hArg]DC[Hyp][Cba]VNPLCLEP[dA]WTC[dA]-NH2 (linker 4-11-18 via TATA, Bicyclic peptide cyclised with TATA) [BCY13123] | 
41 | 7.8 nM | A[hArg]DC[Hyp][Aad]VNPLCLHP[dD]W[hArg]C-NH2 (linker 4-11-18 via TATA, Bicyclic peptide cyclised with TATA) [BCY13130] | 
42 | 0.916 nM | Ac-C[Hyp]LVNPLCL[Dip]P[dD]WTC[dK]-NH2 (linker 1-8-15 via TATA, Bicyclic peptide cyclised with TATA) [BCY13120] | 
